Paper PMC5703890, “Involvement of cecropin B in the formation of the Aedes aegypti mosquito cuticle”

T1: Aacec B (cecropin B) peptide (Aedes aegypti)
T1 sequence: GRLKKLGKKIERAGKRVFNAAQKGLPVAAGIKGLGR

T2: Aacec B (cecropin B) peptide (Aedes aegypti)
T2 chain: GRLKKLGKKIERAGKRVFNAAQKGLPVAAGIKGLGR


What follows are molecules tested on T1, Aacec B (cecropin B) peptide (Aedes aegypti) (assay: pull-down). Conditions: not given.

Molecule	binding
CTCCGCAAAGGCAAGATCCGGGATTCCAACATTTCGAACCGGAATTTCGACCTCCGCGCCACTCGTGAACCTGCTCTGCAAATCGCCAGCTAACGGACGATAACGATCACTCAAATACTCGTCCGGAATTATGAGCGATGTTTTACCATCGTCCTTTGGCATAAACGATGGCTCCAGAGGGCGTTGCAGAAGCGCTTGGAAAGATTTACTCTCAGCCATCTTTTAACAACAAAACAATGCGTTTCCGTACGATAGCTATCGATTGGAGATTGG (double strand) [5' end-1 fragment]	binds
GCCTACATTCACGATCCTGAGTATCGGTACTTGGAAGATTTTGGAGTAATGGG (double strand) [Cu B2 fragment]	binds
GTTAGCTGGCGATTTGCAGAGCAGGTTCACGAGTGGCGCGGAGGTCGAAATTCCGGTTCGAAATGTTGGAATCCCGGATCTTGCCTTTGCGGAG (double strand) [5' end-1-2 fragment]	binds
TGACGTGACAACGGCAATGCGTGATCCTGTGTTCTATCGTTGGCACGGAATGATCGATGGCTTGT (double strand) [Cu B3 fragment]	binds
AACAAGCCATCGATCATTCCGTGCCAACGATAGAACACAGGATCACGCATTGCCGTTGTCACGTCACCCATTACTCCAAAATCTTCCAAGTACCGATACTCAGGATCGTGAATGTAGGCCAAAAAATCATGTCCAAAGTTATGCAAACTCCCATACAACCTCCTGTTGACGGAAAGCGTGGAAGCTTCAACCAAGTCACCTAAAAT (double strand) [Cu B fragment]	binds
ATAACGAGAAATGATTTGGCTGTGCATATAGTAGAAAAGTTCACCACGGCGATCTTTCTTAGCAATTTCCGGTGGCGCCCCAGCAGGATACACTAAATGCCAGTGCCAATGGTGCATGTTGACTCCGATGTCCTCACGGAAGTATGCCAT (double strand) [Cu A fragment]	binds
ATGGCATACTTCCGTGAGGACATCGGAGTCAACATGCACCATTGGCACTGGCATTTAGT (double strand) [Cu A1 fragment]	binds

Target: T2, Aacec B (cecropin B) peptide
Assay: EMSA; EMSA: 6% native polyacrylamide gel, LightShift chemiluminescent kit; buffer, salt, pH and temperature not given in the material (cited to earlier work)
Conditions: tags: none stated for EMSA; conjugated to beads for pull-down; label: biotin; blunt

Molecule	binding result
nucleotide replacement 4 ((A/C)A to CG) (dsDNA) DNA 1: TCGAAATGTTGGCGTCCCGG DNA 2: CCGGGACGCCAACATTTCGA	no binding
nucleotide replacement 1 (TT to CC) (dsDNA) DNA 1: TCGAAATGCCGGAATCCCGG DNA 2: CCGGGATTCCGGCATTTCGA	no binding
nucleotide replacement 2 (GG to TA) (dsDNA) DNA 1: TCGAAATGTTTAAATCCCGG DNA 2: CCGGGATTTAAACATTTCGA	no binding
nucleotide replacement 3 ((A/C)A to TA) (dsDNA) DNA 1: TCGAAATGTTGGTATCCCGG DNA 2: CCGGGATACCAACATTTCGA	no binding

Target: T2, Aacec B (cecropin B) peptide
Assay: EMSA; 1 ng peptide; EMSA: 6% native polyacrylamide gel, LightShift chemiluminescent kit; buffer, salt, pH and temperature not given in the material (cited to earlier work)
Conditions: tags: none stated for EMSA; conjugated to beads for pull-down; label: biotin end label; blunt

Molecule	binding result
AaPPO 3-5' end-1-2 oligo (TTGGAA) (dsDNA) DNA 1: GTTCGAAATGTTGGAATCCCGGATC DNA 2: GATCCGGGATTCCAACATTTCGAAC	binds
AaPPO 3-Cu A1 oligo (TTGGCA) (dsDNA) DNA 1: CATGCACCATTGGCACTGGCATTTA DNA 2: TAAATGCCAGTGCCAATGGTGCATG	binds
AaPPO 3-Cu B3 oligo (TTGGCA) (dsDNA) DNA 1: GTTCTATCGTTGGCACGGAATGATC DNA 2: GATCATTCCGTGCCAACGATAGAAC	binds
AaPPO 3-Cu B2 oligo (TTGGAA) (dsDNA) DNA 1: GAGTATCGGTACTTGGAAGATTTTG DNA 2: CAAAATCTTCCAAGTACCGATACTC	binds
